This is an account of results in PMC6545606.

As usually defined, the pKd is −log10 of the Kd, conventionally taken in molar units.

The target of one assay is ubiquitin (Homo sapiens) (UniProt P0CG47). Particulars: cited from earlier work.
Assay [1] deals with K48-linked diubiquitin (Homo sapiens) (UniProt P0CG47). Particulars: cited from earlier work.
Assay [2] addresses K63-linked diubiquitin (ubiquitin_(K63R) joined to ubiquitin_(G76C)), fluorescently labelled (human) (UniProt P0CG47). The assay is described as follows: other fluorescence titration.
The target of assay [3] is K48-linked diubiquitin (ubiquitin_(K48R) joined to ubiquitin_(G76C)), fluorescently labelled (human) (UniProt P0CG47). The assay is described as follows: other fluorescence titration.
Assay [4] deals with ubiquitin_(G76C), fluorescently labelled (human) (UniProt P0CG47). The assay is described as follows: other fluorescence titration.

pKd: −log10 of the molar value.

S5a, sequence (P55036 whole entry): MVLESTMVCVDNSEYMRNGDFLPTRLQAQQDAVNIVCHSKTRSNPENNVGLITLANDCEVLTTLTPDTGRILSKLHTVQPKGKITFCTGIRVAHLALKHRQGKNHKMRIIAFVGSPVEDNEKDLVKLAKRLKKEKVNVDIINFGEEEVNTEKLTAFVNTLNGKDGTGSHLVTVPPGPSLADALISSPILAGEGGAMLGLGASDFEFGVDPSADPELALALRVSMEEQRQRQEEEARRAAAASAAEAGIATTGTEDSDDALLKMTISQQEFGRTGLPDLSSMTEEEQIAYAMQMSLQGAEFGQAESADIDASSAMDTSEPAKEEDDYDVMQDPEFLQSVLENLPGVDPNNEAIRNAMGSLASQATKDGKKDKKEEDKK

S5a (from UniProt P55036): the pKd was 4.14 with ubiquitin (Homo sapiens) and 5.05 in assay [1].

For “StoD (S. Typhi outer protein D), full-length, untagged (enzyme)”, the negative logarithm of the Kd (pKd) was 5.25 in assay [2], 4.82 in assay [3] and 4.26 in assay [4].
